Test results: patent publication US20250154199A1

Target: Slack KNa channel, wildtype (Slack-B subunit), recombinantly expressed in CHO cells
Assay: cell-based or functional assay

## Magi-1 (Membrane-Associated Guanylate Kinase 1), recombinantly expressed in CHO cells
  membrane currents of Slack-B on co-expression with Magi-1: 2 fold
